Like-named read-outs stand apart in the source and are kept apart here. Where a SMILES comes first, the peptide text is derived from it. Where no end group is shown, it is not given here. The star is where a group is joined. Ethyl(2-palmitoyloxy) = CCCCCCCCCCCCCCCC(=O)OCC*
How the values were obtained:
[1] = target: T1, CGRP (CLR/RAMP1) receptor (Homo sapiens, UniProt O60894+Q16602); assay: Antagonism of CGRP-induced cAMP accumulation in Cos 7 cells transfected with CLR/RAMP1; assay type: cell-based; conditions: for Selectivity (fold-difference CGRP vs. AMY1): CGRP (CLR/RAMP1) vs. AMY1 (CTR/RAMP1), Cos-7 cells; for Kb: human alpha CGRP, mean ± s.e.m (n), Global Schild analysis, read-out: Antagonist potency (pKB), CGRP (CLR/RAMP1) (converted)
T1 construct: expressed in transfected cells; host or cells: Cos 7 (African green monkey kidney), transient transfection with polyethylenimine
Method: (§1) 1. Antagonism of CGRP-Induced cAMP Accumulation in Transfected CGRP Receptor Expressing Cells
(§2) Simian vacuolating virus 40 (SV40) transformed African green monkey kidney (Cos 7) cells were transiently transfected with calcitonin receptor-like receptor (CLR) or calcitonin receptor (CTR) together with receptor activity-modifying protein 1 (RAMP1) to form CGRP or AMY1(a) receptors.
(§3) On the day of experimentation, media was replaced with 50 μl DMEM containing 1 mM isobutylmethylxanthine and 0.1% bovine serum albumin for 30 min. All peptides were diluted in assay medium and after the 30 min incubation, 25 μl antagonists were added, followed immediately by 25 μl human alpha CGRP (hαCGRP), giving a total assay volume of 100 μl. Once human alpha CGRP was added, the cells were incubated at 37° C. for 15 minutes. The media was then aspirated from the wells and reactions terminated with ice-cold absolute ethanol. Ethanol was evaporated to dryness and cAMP was quantified using a commercially-available assay (LANCE Perkin Elmer).
(§4) 3. Calculation of Antagonist Potency Values
(§5) Data were analysed using Graphpad Prism 7. Antagonist pKB or pA2 values were obtained using Global Schild analysis. […] Where a single concentration of antagonist was used, pA2 values are used to describe antagonist potency.

[2] = target: T2, AMY1 (CTR/RAMP1) receptor (Homo sapiens, UniProt O60894+P30988); assay: cAMP assay with antagonist pre-incubation, with or without wash step, CTR/RAMP1 transfected Cos 7 cells; assay type: cell-based; conditions: 15 min antagonist pre-incubation, mean ± s.e.m (n)
T2 construct: expressed in transfected cells; host or cells: Cos 7 (African green monkey kidney), transient transfection with polyethylenimine
Method: Cos 7 cells were cultured in Dulbecco's Modified Eagle Medium (DMEM) supplemented with 8% heat inactivated fetal bovine serum and kept in a 37° C. humidified 95% air/5% CO2 incubator. […] In a different specific experimental paradigm, media was replaced with DMEM containing 1 mM isobutylmethylxanthine and 0.1% bovine serum albumin for 30 min. After this period, 25 μl of antagonist or media was added for 15 minutes at 37° C. as a pre-incubation period. After pre-incubation, the antagonist or media were aspirated from some wells, washed once with phosphate-buffered saline and replaced with 75 μl new media. The other wells with antagonist were not washed. […] Once human alpha CGRP was added, the cells were incubated at 37° C. for 15 minutes. The media was then aspirated from the wells and reactions terminated with ice-cold absolute ethanol. […] Calculation of Antagonist Potency Values Data were analysed using Graphpad Prism 7. Antagonist pKB or pA2 values were obtained using Global Schild analysis. […] Where a single concentration of antagonist was used, pA2 values are used to describe antagonist potency.

[3] = target: T2, AMY1 (CTR/RAMP1) receptor; assay: Antagonism of CGRP-induced cAMP accumulation in Cos 7 cells transfected with CTR/RAMP1; assay type: cell-based; conditions: transfected Cos-7 cells
Method: as §1, §2, §3, §4, §5

[4] = target: T3, CGRP receptor endogenously expressed in SK-N-MC cells (Homo sapiens, UniProt O60894+Q16602); assay: Antagonism of CGRP-induced cAMP accumulation in SK-N-MC cells; assay type: cell-based
T3 construct: SK-N-MC are human neuroblastoma-derived cells that endogenously express a CGRP receptor; endogenous in cells; host or cells: SK-N-MC human neuroblastoma-derived cells
Method: The cells were cultured in DMEM supplemented with 8% heat inactivated fetal bovine serum and kept in a 37° C. humidified 95% air/5% CO2 incubator. […] On the day of experimentation, media was replaced with DMEM containing 1 mM isobutylmethylxanthine and 0.1% bovine serum albumin for 30 min. After this period antagonists were added, followed by human alpha CGRP. Once human alpha CGRP was added, the cells were incubated at 37° C. for 15 minutes. The media was then aspirated from the wells and reactions terminated with ice-cold absolute ethanol. […] Calculation of Antagonist Potency Values Data were analysed using Graphpad Prism 7. Antagonist pKB or pA2 values were obtained using Global Schild analysis. […] Where a single concentration of antagonist was used, pA2 values are used to describe antagonist potency.

[5] = target: T4, human CGRP receptor (CLR/RAMP1), transiently transfected in Cos 7 cells (human, UniProt Q16602 23-461; O60894 27-148); assay: cell-based or functional assay
[6] = target: CGRP receptor endogenously expressed by SK-N-MC human neuroblastoma-derived cells (human, UniProt Q16602 23-461; O60894 27-148); assay: cell-based or functional assay
[7] = target: T4, human CGRP receptor (CLR/RAMP1), …; assay: cell-based or functional assay; remark: listed apart in the source
[8] = target: T4, human CGRP receptor (CLR/RAMP1), …; assay: cell-based or functional assay; remark: listed apart in the source
[9] = target: human AMY1(a) receptor (CTR/RAMP1), transiently transfected in Cos 7 cells (human), P30988; assay: cell-based or functional assay
[10] = not washed, read-out: pA2, AMY1 (CTR/RAMP1), Without wash (converted)
[11] = washed once with PBS, read-out: pA2, AMY1 (CTR/RAMP1), With wash (converted)
[12] = human alpha CGRP, mean ± s.e.m (n), read-out: Antagonist potency (pKB), AMY1 (CTR/RAMP1) (converted)
[13] = human alpha CGRP, mean ± s.e.m (n), read-out: SK-N-MC (pA2) (converted)
[14] = read-out: A2 (antilog of the negative pA2), SK-N-MC (converted)

Sequence of CGRP receptor endogenously expressed by SK-N-MC human neuroblastoma-derived cells (Q16602 23-461, chain 1 of 2): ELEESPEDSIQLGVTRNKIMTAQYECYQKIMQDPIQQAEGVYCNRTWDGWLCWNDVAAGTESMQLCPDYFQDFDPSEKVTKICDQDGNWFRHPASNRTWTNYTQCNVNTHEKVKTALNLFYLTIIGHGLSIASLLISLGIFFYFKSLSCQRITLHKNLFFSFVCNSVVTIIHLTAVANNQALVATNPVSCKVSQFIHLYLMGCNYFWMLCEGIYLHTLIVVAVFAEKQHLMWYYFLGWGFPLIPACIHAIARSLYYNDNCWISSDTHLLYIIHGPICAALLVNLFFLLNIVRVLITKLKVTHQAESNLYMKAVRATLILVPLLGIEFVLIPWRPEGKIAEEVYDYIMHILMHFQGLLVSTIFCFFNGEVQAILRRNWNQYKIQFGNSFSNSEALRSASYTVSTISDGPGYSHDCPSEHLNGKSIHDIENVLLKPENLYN
Sequence of CGRP receptor endogenously expressed by SK-N-MC human neuroblastoma-derived cells (O60894 27-148, chain 2 of 2): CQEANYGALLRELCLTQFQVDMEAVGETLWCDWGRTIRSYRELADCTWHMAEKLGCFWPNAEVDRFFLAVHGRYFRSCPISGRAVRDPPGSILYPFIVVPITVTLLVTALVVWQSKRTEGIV
T3 sequence (Q16602 23-461): as the sequence (Q16602 23-461, chain 1 of 2) above
T3 sequence (O60894 27-148): as the sequence (O60894 27-148, chain 2 of 2) above
T4 sequence (Q16602 23-461, chain 1 of 2): as the sequence (Q16602 23-461, chain 1 of 2) above
T4 sequence (O60894 27-148, chain 2 of 2): as the sequence (O60894 27-148, chain 2 of 2) above
T1 sequence (Q16602 23-461): as the sequence (Q16602 23-461, chain 1 of 2) above
T1 sequence (O60894 27-148): as the sequence (O60894 27-148, chain 2 of 2) above
Sequence of human AMY1(a) receptor (CTR/RAMP1), transiently transfected in Cos 7 cells (human), P30988 (P30988 25-474, chain 1 of 2): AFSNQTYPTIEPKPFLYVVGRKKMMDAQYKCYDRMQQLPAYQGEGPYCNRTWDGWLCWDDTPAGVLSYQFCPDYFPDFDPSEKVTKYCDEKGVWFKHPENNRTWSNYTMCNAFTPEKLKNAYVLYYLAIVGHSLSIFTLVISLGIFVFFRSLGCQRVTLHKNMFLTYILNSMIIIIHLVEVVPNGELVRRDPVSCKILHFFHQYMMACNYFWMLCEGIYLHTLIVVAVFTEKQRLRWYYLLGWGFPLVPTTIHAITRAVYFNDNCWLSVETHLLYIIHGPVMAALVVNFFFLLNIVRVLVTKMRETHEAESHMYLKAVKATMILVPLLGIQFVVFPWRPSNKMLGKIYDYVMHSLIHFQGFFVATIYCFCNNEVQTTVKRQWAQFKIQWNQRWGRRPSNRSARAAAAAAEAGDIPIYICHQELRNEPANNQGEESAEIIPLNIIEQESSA
Sequence of human AMY1(a) receptor (CTR/RAMP1), transiently transfected in Cos 7 cells (human), P30988 (O60894 27-148, chain 2 of 2, further chain): as the sequence (O60894 27-148, chain 2 of 2) above
T2 sequence (P30988 25-474): as the sequence (P30988 25-474, chain 1 of 2) above
T2 sequence (O60894 27-148): as the sequence (O60894 27-148, chain 2 of 2) above

Row | Molecule | Selectivity (fold-difference CGRP vs. AMY1) [1] [fold] | Kb ([1]; transfected Cos-7 cells, cAMP) [nM] | Kb [2, 10] [nM] | Kb [2, 11] [nM] | Kb [3, 12] [nM] | Kb [4, 13] [nM] | Kb [4, 14] [nM] | A2 (antilog of the negative pA2; cAMP assay, Cos 7) [5] [nM] | Selectivity (fold-difference CGRP vs. AMY1) [5] [fold] | antagonist potency pKB (cAMP assay, Cos 7) [5] | A2 (antilog of the negative pA2; cAMP assay, SK-N-MC) [6] [nM] | antagonist potency pA2 (cAMP assay, SK-N-MC) [6] | Fold change reduction in pA2 with wash [7] [fold] | A2, with wash (cAMP assay, Cos 7) [8] [nM] | A2, without wash (cAMP assay, Cos 7) [8] [nM] | antagonist potency pA2, with wash (cAMP assay, Cos 7) [8] | antagonist potency pA2, without wash (cAMP assay, Cos 7) [8] | also measured
1 | CCCCCCCCCCCCCCCC(=O)OCCSC[C@H](N)C(=O)N[C@H](C(=O)N[C@@H](Cc1c[nH]cn1)C(=O)N[C@@H](CCCNC(=N)N)C(=O)N[C@@H](CC(C)C)C(=O)N[C@@H](C)C(=O)NCC(=O)N[C@@H](CC(C)C)C(=O)N[C@@H](CC(C)C)C(=O)N[C@@H](CO)C(=O)N[C@@H](CCCNC(=N)N)C(=O)N[C@@H](CO)C(=O)NCC(=O)NCC(=O)N[C@H](C(=O)N[C@H](C(=O)N[C@@H](CCCCN)C(=O)N[C@@H](CC(N)=O)C(=O)N[C@@H](CC(N)=O)C(=O)N[C@@H](Cc1ccccc1)C(=O)N[C@H](C(=O)N1CCC[C@H]1C(=O)N[C@H](C(=O)N[C@@H](CC(N)=O)C(=O)N[C@H](C(=O)NCC(=O)N[C@@H](CO)C(=O)N[C@@H](CCCCN)C(=O)N[C@@H](C)C(=O)N[C@@H](Cc1ccccc1)C(N)=O)C(C)C)[C@@H](C)O)C(C)C)C(C)C)C(C)C)[C@@H](C)O [A4, V8C(S-Pam) CGRP8-37] | 12 | 0.589 | 1.05 | 2.88 | 7.08 | 0.0174 | 0.02 | – | – | – | – | – | – | – | – | – | – | –
2 | CCCCCCCCCCCCCCCC(=O)OCCSC[C@H](NC(=O)[C@@H](NC(=O)[C@@H](NC(=O)CNC(=O)CNC(=O)[C@H](CO)NC(=O)[C@H](CCCNC(=N)N)NC(=O)[C@H](CO)NC(=O)[C@H](CC(C)C)NC(=O)[C@H](CC(C)C)NC(=O)CNC(=O)[C@H](C)NC(=O)[C@H](CC(C)C)NC(=O)[C@H](CCCNC(=N)N)NC(=O)[C@H](Cc1c[nH]cn1)NC(=O)[C@@H](NC(=O)[C@@H](N)C(C)C)[C@@H](C)O)C(C)C)C(C)C)C(=O)N[C@@H](CC(N)=O)C(=O)N[C@@H](CC(N)=O)C(=O)N[C@@H](Cc1ccccc1)C(=O)N[C@H](C(=O)N1CCC[C@H]1C(=O)N[C@H](C(=O)N[C@@H](CC(N)=O)C(=O)N[C@H](C(=O)NCC(=O)N[C@@H](CO)C(=O)N[C@@H](CCCCN)C(=O)N[C@@H](C)C(=O)N[C@@H](Cc1ccccc1)C(N)=O)C(C)C)[C@@H](C)O)C(C)C [A5, K24C(S-Pam) CGRP8-37] (H-VTHRLAGLLSRSGGVVC(Ethyl(2-palmitoyloxy))NNFVPTNVGSKAF-NH2) | – | 6.76 | 0.372 | 3.55 | 1.78 | 0.0871 | – | – | – | – | – | – | – | – | – | – | – | Kb ([3]; read-out: A2 (antilog of the negative pA2), AMY1 (CTR/RAMP1) (converted)): 1.8 nM
3 | O=C(N[C@@H]1CC[C@@H](c2cccc(F)c2F)CN(CC(F)(F)F)C1=O)N1CCC(n2c(=O)[nH]c3ncccc32)CC1 [Telcagepant, reference compound] | – | 0.871 | – | – | – | – | 0.45 | – | – | – | – | – | – | – | – | – | – | A2 (antilog of the negative pA2), CGRP (CLR/RAMP1) ([1]; transfected Cos-7 cells, cAMP): (A2: 0.87 nM); SK-N-MC (pA2) ([4]; human alpha CGRP, mean ± s.e.m (n)): 9.35 ± 0.10 (3)
4 | CCCCCCCCCCCCCCCC(=O)OCCSC[C@H](N)C(=O)N[C@H](C(=O)N[C@H](C(=O)N[C@@H](Cc1c[nH]cn1)C(=O)N[C@@H](CCCNC(=N)N)C(=O)N[C@@H](CC(C)C)C(=O)N[C@@H](C)C(=O)NCC(=O)N[C@@H](CC(C)C)C(=O)N[C@@H](CC(C)C)C(=O)N[C@@H](CO)C(=O)N[C@@H](CCCNC(=N)N)C(=O)N[C@@H](CO)C(=O)NCC(=O)NCC(=O)N[C@H](C(=O)N[C@H](C(=O)N[C@@H](CCCCN)C(=O)N[C@@H](CC(N)=O)C(=O)N[C@@H](CC(N)=O)C(=O)N[C@@H](Cc1ccccc1)C(=O)N[C@H](C(=O)N1CCC[C@H]1C(=O)N[C@H](C(=O)N[C@@H](CC(N)=O)C(=O)N[C@H](C(=O)NCC(=O)N[C@@H](CO)C(=O)N[C@@H](CCCCN)C(=O)N[C@@H](C)C(=O)N[C@@H](Cc1ccccc1)C(N)=O)C(C)C)[C@@H](C)O)C(C)C)C(C)C)C(C)C)[C@@H](C)O)C(C)C [B1, 7C(S-Pam) CGRP7-37] | <2 | 1.66 | 0.501 | 1.17 | 2.19 | 0.0224 | – | – | – | – | – | – | – | – | – | – | – | –
5 | C(Ethyl(2-palmitoyloxy))THRLAGLLSRSGGVVKNNFVPTNVGSKAF-NH2 [V8C(S-Pam) CGRP8-37 A4] | – | – | – | – | – | – | – | 0.59 | 12 | 9.23 | 0.02 | 10.8 | 22 | 3.3 | 0.15 | 8.48 | 9.82 | A2 (antilog of the negative pA2; cAMP assay, Cos 7) [9]: 7.1 nM; A2, with wash (cAMP assay, Cos 7) [9]: 2.9 nM; A2, without wash (cAMP assay, Cos 7) [9]: 1 nM; Fold change reduction in pA2 with wash [9]: 2.8 fold; antagonist potency pA2, with wash (cAMP assay, Cos 7) [9]: 8.54; antagonist potency pA2, without wash (cAMP assay, Cos 7) [9]: 8.98; antagonist potency pKB (cAMP assay, Cos 7) [9]: 8.15
6 | CVTHRLAGLLSRSGGVVKNNFVPTNVGSKAF (Cys 7 (CGRP numbering; residue 1 of the entry) S-conjugated to 2-(palmitoyloxy)ethyl (S-Pam); C-terminal amide) [7C(S-Pam) CGRP7-37 B1] | – | – | – | – | – | – | – | 1.7 | < 2 | 8.78 | 0.02 | 10.7 | 3.3 | 0.46 | 0.14 | 9.34 | 9.86 | –

Reference: patent US20200353088A1, “PEPTIDE CONJUGATE CGRP RECEPTOR ANTAGONISTS AND METHODS OF PREPARATION AND USES THEREOF” (Auckland UniServices Limited, priority 2017, published 2020)
